From patent US20170296650A1 (Novartis, published 2017) come the findings set out here.

Data set [1] has as its target T1, hCMV gH + gL + UL128 + UL130 (HEK293T co-transfectant) (hCMV, UniProt P12824 24-743; P16832 31-278; P16837 28-171; P16772 1-214). Kind of data set: cell-based or functional assay.
Data set [2] concerns the target T2, hCMV gH + gL + UL128 + UL130 + UL131A (5-member complex; HEK293T co-transfectant) (hCMV, UniProt P12824 24-743; P16832 31-278; P16837 1-171; P16772 1-214).
T2 construct: whole, on cells; in the functional rows it stands for the complex on virions or transduced cells of the strain or isolate named in the readout; also called gH/gL/UL128-131A complex; pentameric complex
Kind of data set: cell competition; competitor 4N10-biotin.

Data set [3] concerns the target T1, hCMV gH + gL + UL128 + UL130 (HEK293T …). The data set can be described thus: cell-based or functional assay. This is another data set of the same source.
Data set [4] deals with T2, hCMV gH + gL + UL128 + UL130 + UL131A …. Kind of data set: cell competition; competitor 5A2-biotin.
For data set [5] the target is unchanged. The data set can be described thus: cell competition; competitor 2F4-biotin.
For data set [6] the target is unchanged. Kind of data set: cell competition; competitor 1F11-biotin.
Data set [7] has the same target. The data set can be described thus: cell competition; competitor 4I22-biotin.
The target is the same in data set [8]. Kind of data set: cell competition; competitor 8I21-biotin.
Data set [9] shares this target. The data set can be described thus: cell competition; competitor 15D8-biotin.
The target is the same in data set [10]. Kind of data set: cell competition; competitor 6G4-biotin.
For data set [11] the target is unchanged. Kind of data set: cell competition; competitor 2C12-biotin.
The target in data set [12] is T3, hCMV gM + gN (HEK293T co-transfectant) (hCMV, UniProt P16733 1-372; P16795 22-138).
T3 sequence 1: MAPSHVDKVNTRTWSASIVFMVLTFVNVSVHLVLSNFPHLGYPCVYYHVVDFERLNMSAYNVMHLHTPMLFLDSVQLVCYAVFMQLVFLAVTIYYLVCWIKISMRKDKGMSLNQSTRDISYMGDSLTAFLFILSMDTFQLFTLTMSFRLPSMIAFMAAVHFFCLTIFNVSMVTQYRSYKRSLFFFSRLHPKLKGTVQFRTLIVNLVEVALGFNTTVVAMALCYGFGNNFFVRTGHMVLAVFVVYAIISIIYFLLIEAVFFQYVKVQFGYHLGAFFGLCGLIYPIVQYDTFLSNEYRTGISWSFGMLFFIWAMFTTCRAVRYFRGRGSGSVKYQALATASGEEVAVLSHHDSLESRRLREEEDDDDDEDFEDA
T3 sequence 2: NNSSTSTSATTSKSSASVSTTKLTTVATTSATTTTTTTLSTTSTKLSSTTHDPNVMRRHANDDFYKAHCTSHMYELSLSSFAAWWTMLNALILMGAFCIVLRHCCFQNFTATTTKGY
The data set can be described thus: cell-based or functional assay.

Data set [13] deals with T3, hCMV gM + gN (HEK293T co-transfectant). Kind of data set: cell-based or functional assay. This is another data set of the same source.
Data set [14] has as its target T4, hCMV glycoprotein B (gB; HEK293T transfectant) (hCMV, UniProt P06473 32-906). Kind of data set: cell-based or functional assay.
For data set [15], the target named is T4, hCMV glycoprotein B (gB; HEK293T …). Kind of data set: cell competition; competitor 7H3-biotin.
For data set [16] the target is unchanged. The data set can be described thus: cell-based or functional assay. This is another data set of the same source.
Data set [17] has the same target. The data set can be described thus: cell competition; competitor 10C6-biotin.
For data set [18] the target is unchanged. Kind of data set: cell competition; competitor 6B4-biotin.
The target is the same in data set [19]. Kind of data set: cell competition; competitor 2B11-biotin.
Data set [20] has the same target. The data set can be described thus: cell competition; competitor 5F1-biotin.
The target is the same in data set [21]. Kind of data set: cell-based or functional assay. This is another data set of the same source.
The target of data set [22] is T5, soluble gB ectodomain expressed in a mammalian cell line (hCMV, UniProt P06473 32-750).
T5 construct: extracellular domain
Kind of data set: ELISA, soluble gB ectodomain; ELISA on soluble gB ectodomain (4I22 was measured by Biacore on the 5-member complex).

The target of data set [23] is T4, hCMV glycoprotein B (gB; HEK293T …). Kind of data set: cell-based or functional assay. This is another data set of the same source.
For data set [24] the target is unchanged. The data set can be described thus: cell competition; competitor 4H9-biotin.
For data set [25] the target is unchanged. Kind of data set: cell-based or functional assay. This is another data set of the same source.
Data set [26] concerns the target hCMV gB E361K + D362N (virus selected with 7H3 in fibroblasts) (hCMV). Kind of data set: cell-based or functional assay.
Data set [27] deals with hCMV gB E381 deletion (virus selected with 7H3 in epithelial cells) (hCMV). Kind of data set: cell-based or functional assay.
Data set [28] deals with T4, hCMV glycoprotein B (gB; HEK293T …). Kind of data set: cell-based or functional assay. This is another data set of the same source.

T4 sequence (P06473 32-906 limits assumed): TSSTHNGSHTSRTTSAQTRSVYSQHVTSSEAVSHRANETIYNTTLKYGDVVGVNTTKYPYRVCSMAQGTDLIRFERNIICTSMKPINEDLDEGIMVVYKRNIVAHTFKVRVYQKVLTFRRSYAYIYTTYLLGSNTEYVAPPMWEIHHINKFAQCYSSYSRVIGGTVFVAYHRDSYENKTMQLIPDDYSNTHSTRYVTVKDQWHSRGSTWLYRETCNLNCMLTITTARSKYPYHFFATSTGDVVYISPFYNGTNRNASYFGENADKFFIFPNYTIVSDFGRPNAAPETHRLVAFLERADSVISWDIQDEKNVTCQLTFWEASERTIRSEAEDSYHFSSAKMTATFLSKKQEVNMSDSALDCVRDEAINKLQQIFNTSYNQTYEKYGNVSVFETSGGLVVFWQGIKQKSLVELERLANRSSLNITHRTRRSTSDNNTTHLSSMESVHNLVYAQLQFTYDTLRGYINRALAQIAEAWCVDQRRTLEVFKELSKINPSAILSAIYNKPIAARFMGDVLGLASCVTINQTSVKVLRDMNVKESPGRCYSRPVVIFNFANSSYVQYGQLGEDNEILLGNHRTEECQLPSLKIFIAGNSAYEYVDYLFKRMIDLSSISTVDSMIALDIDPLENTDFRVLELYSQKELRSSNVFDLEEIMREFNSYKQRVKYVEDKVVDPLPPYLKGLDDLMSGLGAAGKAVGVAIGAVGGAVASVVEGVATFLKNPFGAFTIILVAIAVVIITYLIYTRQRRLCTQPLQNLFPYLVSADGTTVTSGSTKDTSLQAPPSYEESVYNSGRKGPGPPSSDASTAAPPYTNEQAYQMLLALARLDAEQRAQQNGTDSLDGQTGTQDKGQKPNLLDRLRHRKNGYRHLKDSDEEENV
T5 sequence (P06473 32-750 limits assumed): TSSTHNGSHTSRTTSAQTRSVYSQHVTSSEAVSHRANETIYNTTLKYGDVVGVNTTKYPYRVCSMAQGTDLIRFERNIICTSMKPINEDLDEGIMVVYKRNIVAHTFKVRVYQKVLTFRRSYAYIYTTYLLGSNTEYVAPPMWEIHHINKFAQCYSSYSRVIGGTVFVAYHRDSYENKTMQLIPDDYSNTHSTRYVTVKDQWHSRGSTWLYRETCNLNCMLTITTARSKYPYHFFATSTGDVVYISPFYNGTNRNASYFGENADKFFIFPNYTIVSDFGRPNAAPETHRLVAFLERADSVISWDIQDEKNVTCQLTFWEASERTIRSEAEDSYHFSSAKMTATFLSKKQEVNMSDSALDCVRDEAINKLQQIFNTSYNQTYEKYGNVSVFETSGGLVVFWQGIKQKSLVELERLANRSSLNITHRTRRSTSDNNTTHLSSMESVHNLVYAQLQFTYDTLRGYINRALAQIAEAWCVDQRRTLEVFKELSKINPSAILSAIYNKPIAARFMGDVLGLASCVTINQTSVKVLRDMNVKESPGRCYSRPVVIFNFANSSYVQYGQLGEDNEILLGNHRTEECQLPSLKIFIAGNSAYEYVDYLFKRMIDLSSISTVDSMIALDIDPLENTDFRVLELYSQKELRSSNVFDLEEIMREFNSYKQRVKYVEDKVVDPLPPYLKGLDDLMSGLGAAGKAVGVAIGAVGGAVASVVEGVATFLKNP

B1: 8I21 (antibody, V domains shown)
VH: LVELVESGGGVVQPGRSLRLSCAASGFTFSSDGMHWVRQSPGRGLEWVAFISSDGSTPYYADSVKGRFTISRDNSKNTLYLQMNSLRAEDTAMYFCAKDWALFRWLRTFDHWGQGTLVTVSS
VL: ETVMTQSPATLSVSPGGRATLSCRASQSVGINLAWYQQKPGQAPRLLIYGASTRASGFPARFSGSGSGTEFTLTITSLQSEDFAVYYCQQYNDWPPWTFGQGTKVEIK
notes: human IgG; also called 8I21-biotin
For B1, the “90% neutralization VR1814, ARPE” value in data set [1] was 0.03 µg/mL. The “90% neutralization VR1814, MRC-9” value in [1] is more than 10 µg/mL. In addition, the “Inhibition of binding (%)” value was found to be 90% in [2]; 95% in data set [4]; 0% in data set [5]; 0% in [6]; 0% in data set [7]; 100% in data set [8]. Further, the “Inhibition of binding (%)” value in data set [9], in data set [10] and in data set [11] was 0% each time. The “50% neutralization VR1814, ARPE” value in data set [3] is less than 0.01 µg/mL. Besides, the “50% neutralization VR1814, MRC-9” value in [3] is more than 2 µg/mL.

B2: 6L3 (antibody, V domains shown)
VH: EVRLEESGGGLVQPGGSLRLSCAASGFTVSTTYMAWVRQAPGKGLEWVSLIHTGGIFGVGGTSYADSVKGRFTISRDTSKNTVSLQMSSLRVEDTAIYFCAREHRGTIDAFDAWGQGTVVIVSS
VL: DIHMTQSPSSLSASVGDRVTITCRASQNIRNYLNWYQHKPGKAPKLLIYTTSRLQSGVPSRFSGSGSGTDFTLTVNSLQPEDFASYYCQQSYDGWTFGQGTKVEMK
As to B2, in data set [12], the “90% neutralization VR1814, ARPE” value was determined as 10 µg/mL and the “90% neutralization VR1814, MRC-9” value was 30 µg/mL. Also, the “50% neutralization VR1814, ARPE” value in [13] was not above 2 µg/mL.

B3: 7H3 (antibody, V domains shown)
VH: QVQLVQSGAEVKNPGASVKVSCKASGYTFTDYYIHWVRQAPGQGLEWMGWFNPNSGGTNFVQNFQGRVTMTRDTSISTAYMELSRLRSDDTAMYYCAKDSAKTASAYYGLNFFYYGMDVWGQGTTVTVSS
VL: QSVLSQPPSASGTPGQRVTISCSGSSSNIGKNYVYWYQQVPGTAPKLLMFKNNQRPSGVPDRFSGSKSGTSASLAISGLRSEDEADYYCSAWDGSLSRPLFGGGTKVTVL
notes: fully human IgG1 with unaltered Fc; also called 7H3-biotin; LJP538
On to B3, for which, in data set [14], the “90% neutralization VR1814, ARPE” value was determined as 0.6 µg/mL and the “90% neutralization VR1814, MRC-9” value is 3 µg/mL. In addition, the “Inhibition of binding (%)” value in data set [15] turned out to be 100%. In addition, in [16], the “50% neutralization VR1814, ARPE” value is more than 2 µg/mL and the “50% neutralization VR1814, MRC-9” value was not above 2 µg/mL. In addition, in data set [17], the “Inhibition of binding (%)” value stood at 0%. Also, the “Inhibition of binding (%)” value in [18] was found to be 0%. Besides, the “Inhibition of binding (%)” value in data set [19] is 0%. The “Inhibition of binding (%)” value in data set [20] amounted to 0%. For the same molecule, in data set [21], the “EC90 neutralization HUVEC, isolate TM-20749” value amounted to 1.18 µg/mL; the “EC90 neutralization HUVEC, isolate TM-31354” value was 2.2 µg/mL; the “EC90 neutralization HUVEC, isolate TM-E5271” value was determined as 0.19 µg/mL; the “EC90 neutralization HUVEC, isolate TM-E9361” value came to 0.29 µg/mL. Moreover, in data set [21], the “EC90 neutralization HUVEC, isolate TM-E14953” value turned out to be 0.12 µg/mL; the “EC90 neutralization HUVEC, isolate TM-E19664” value came to 0.31 µg/mL; the “EC90 neutralization HUVEC, isolate TM-E20744” value was determined as 0.39 µg/mL; the “EC90 neutralization HUVEC, isolate TM-E28175” value came out at 0.28 µg/mL. In addition, the “EC90 neutralization HUVEC, isolate TM-E28257” value in data set [21] came out at 1.02 µg/mL. In addition, the affinity in data set [22], expressed as Kd, was 0.29 nM. In data set [23], the “neutralization of ARPE infection, isolate TM-20749” value was determined as 4.36 µg/mL; the “neutralization of ARPE infection, isolate TM-31354” value was 1.42 µg/mL; the “neutralization of ARPE infection, isolate TM-E5271” value stood at 0.17 µg/mL; the “neutralization of ARPE infection, isolate TM-E9361” value came out at 0.33 µg/mL. Besides, in [23], the “neutralization of ARPE infection, isolate TM-E14953” value amounted to 1.09 µg/mL; the “neutralization of ARPE infection, isolate TM-E19664” value is 0.26 µg/mL; the “neutralization of ARPE infection, isolate TM-E20744” value was 1.37 µg/mL; the “neutralization of ARPE infection, isolate TM-E28175” value was 0.24 µg/mL. In [23], the “neutralization of ARPE infection, isolate TM-E28257” value is 1.16 µg/mL. Also, the “Inhibition of binding (%)” value in data set [24] came to 0%. The “EC50 inhibition of cell-cell fusion” value in data set [25] came out at 4.77 µg/mL. In data set [26], the “fold increase in neutralization EC50 of escape virus” value was more than 41 fold. Further, the “fold decrease in susceptibility of escape virus” value in data set [27] was 22 fold. Moreover, in data set [28], the “50% neutralization VR1814, BM-MSC” value came to 2 µg/mL and the “50% neutralization VR1814, Mo-DC” value came out at 0.06 µg/mL.

As a reminder, the Kd is the free concentration of one partner at which half of the binding sites on the other are occupied at equilibrium, for simple one-to-one binding. Low readings indicate tighter binding, high ones weaker binding.
